Results taken from PMC3989650.

T1: mTLR9-cECD (C-terminal proteolytic fragment of TLR9 ectodomain) (Mus musculus, UniProt Q9EQU3 474-824)
T1 sequence: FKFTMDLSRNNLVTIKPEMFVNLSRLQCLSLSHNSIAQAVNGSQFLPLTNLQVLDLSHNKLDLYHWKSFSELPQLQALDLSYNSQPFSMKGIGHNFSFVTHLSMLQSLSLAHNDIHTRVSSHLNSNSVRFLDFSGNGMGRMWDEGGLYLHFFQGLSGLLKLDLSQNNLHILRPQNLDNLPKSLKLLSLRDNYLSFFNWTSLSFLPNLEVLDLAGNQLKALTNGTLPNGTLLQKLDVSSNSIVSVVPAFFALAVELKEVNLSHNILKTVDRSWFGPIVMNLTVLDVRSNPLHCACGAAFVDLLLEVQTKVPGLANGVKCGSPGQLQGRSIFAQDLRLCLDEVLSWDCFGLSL


Each binder was assayed against T1, mTLR9-cECD (C-terminal proteolytic …) (assay: fluorescence anisotropy; 20 mM MES pH 5.6, 100 mM NaCl, 2 mM beta-mercaptoethanol, 25 C, 0.2 uM labelled R:D60, protein 10 nM-3.0 uM, 10 min equilibration).

Row | Binder | Kd
1 | R:D60 (Cy3) (DNA:RNA) RNA: GUGUGUGUGUGUGUGUGUGUGUGUGUGUGUGUGUGUGUGUGUGUGUGUGUGUGUGUGUGU ?: ACACACACACACACACACACACACACACACACACACACACACACACACACACACACACAC | 27.2 nM
2 | Cy5-ssDNA60 (ssDNA) DNA: ACACACACACACACACACACACACACACACACACACACACACACACACACACACACACAC | 142 nM
3 | Cy3-ssRNA60 (ssRNA) RNA: GUGUGUGUGUGUGUGUGUGUGUGUGUGUGUGUGUGUGUGUGUGUGUGUGUGUGUGUGUGU | 1080 nM
